Experimental data published in PMC11277218.

Legend:
[1] = target: HPV16 pseudovirions (HPV16-PsVs) (human papillomavirus type 16) (UniProt P03101)
[2] = target: HPV16 pseudovirions (HPV16-PsVs) (human papillomavirus type 16) (UniProt P03101); remark: listed apart in the source
[3] = target: HPV16 pseudovirions (HPV16-PsVs) (human papillomavirus type 16) (UniProt P03101); remark: listed apart in the source

Sequence of UniProt P03101 (P03101 whole entry, chain 1 of 2): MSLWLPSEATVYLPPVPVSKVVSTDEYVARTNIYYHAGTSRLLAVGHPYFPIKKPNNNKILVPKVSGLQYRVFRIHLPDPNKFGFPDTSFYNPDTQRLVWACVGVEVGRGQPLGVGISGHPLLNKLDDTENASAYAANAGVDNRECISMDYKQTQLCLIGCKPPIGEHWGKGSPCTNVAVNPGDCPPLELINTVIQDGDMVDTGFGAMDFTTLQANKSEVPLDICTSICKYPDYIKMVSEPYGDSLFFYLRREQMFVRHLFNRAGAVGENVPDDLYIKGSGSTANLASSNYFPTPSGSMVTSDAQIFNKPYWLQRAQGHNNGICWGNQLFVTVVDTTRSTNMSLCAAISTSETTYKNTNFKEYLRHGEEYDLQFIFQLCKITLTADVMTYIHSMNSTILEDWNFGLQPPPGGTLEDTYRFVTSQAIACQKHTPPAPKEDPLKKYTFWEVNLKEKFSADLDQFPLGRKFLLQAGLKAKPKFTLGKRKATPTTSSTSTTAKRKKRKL
Sequence of UniProt P03101 (P03107 whole entry, chain 2 of 2, further chain): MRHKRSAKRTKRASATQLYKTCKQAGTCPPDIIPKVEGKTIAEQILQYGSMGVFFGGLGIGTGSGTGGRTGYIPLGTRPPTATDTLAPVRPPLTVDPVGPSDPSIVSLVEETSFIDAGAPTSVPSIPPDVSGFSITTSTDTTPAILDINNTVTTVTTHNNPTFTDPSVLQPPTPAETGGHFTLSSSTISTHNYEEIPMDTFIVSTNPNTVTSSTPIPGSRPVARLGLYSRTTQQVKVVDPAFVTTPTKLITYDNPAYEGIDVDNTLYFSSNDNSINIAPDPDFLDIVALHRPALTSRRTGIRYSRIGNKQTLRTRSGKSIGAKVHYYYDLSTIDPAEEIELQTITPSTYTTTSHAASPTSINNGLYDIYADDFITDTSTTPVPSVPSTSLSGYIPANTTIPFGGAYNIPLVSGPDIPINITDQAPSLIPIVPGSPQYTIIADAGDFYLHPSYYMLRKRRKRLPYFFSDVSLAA

native human surfactant protein A (SP-A) (from UniProt Q8IWL2 21-248) (natural protein)
infection of HaCaT monocultures by SP-A-preincubated PsVs, Gaussia luciferase at 48 h, against the BSA control [1]: 40 % reduction
uptake of SP-A-preincubated AF488-PsVs into HaCaT keratinocytes, positive cells by flow cytometry, against the BSA control (fold decrease) [2]: 2
uptake of SP-A-preincubated AF488-PsVs into RAW264.7 macrophages, MFI by flow cytometry, fold of the BSA control [3]: 1.75 fold
uptake of SP-A-preincubated AF488-PsVs into RAW264.7 macrophages, positive cells by flow cytometry, fold of the BSA control [3]: 2 fold
uptake of SP-A-preincubated AF488-PsVs into THP-1-derived immature dendritic cells (DC0), positive cells by flow cytometry, fold of the BSA control [3]: 2 fold
uptake of SP-A-preincubated AF488-PsVs into THP-1 monocytes, MFI by flow cytometry, fold of the BSA control [3]: 1.3 fold
